Target: T1, monomeric α-toxin (AT) of Staphylococcus aureus, as crystallised (Staphylococcus aureus subsp. aureus …)
T1 chain: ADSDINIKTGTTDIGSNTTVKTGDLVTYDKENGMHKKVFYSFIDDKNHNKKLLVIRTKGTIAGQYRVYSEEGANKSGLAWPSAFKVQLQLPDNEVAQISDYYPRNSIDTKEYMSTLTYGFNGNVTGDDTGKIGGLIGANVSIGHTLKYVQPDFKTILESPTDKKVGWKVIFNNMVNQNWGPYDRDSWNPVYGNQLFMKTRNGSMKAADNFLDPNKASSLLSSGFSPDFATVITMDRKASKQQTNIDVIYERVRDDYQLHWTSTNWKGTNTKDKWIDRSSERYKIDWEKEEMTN
Test: crystal structure
Conditions: both partners purified

B1: MEDI4893 Fab (Fab, V domains shown)
VH: EVQLVESGGGLVQPGGSLRLSCAASGFTFSSHDMHWVRQATGKGLEWVSGIGTAGDTYYPDSVKGRFTISRENAKNSLYLQMNSLRAGDTAVYYCARDRYSPTGHYYGMDVWGQGTTVTVSS
VL: DIQMTQSPSTLSASVGDRVTITCRASQSISSWLAWYQQKPGKAPKLLIYKASSLESGVPSRFSGSGSGTEFTLTISSLQPDDFATYYCKQYADYWTFGQGTKVEIK
  binding result: binds

From paper PMC4207998 (The Journal of Biological Chemistry, 2014)
